Reference: article PMC13730216 (2026)

Biological target: CXCL12 (Homo sapiens, UniProt P48061)
Assay: BLI

Sequence of CXCL12 (P48061 22-89): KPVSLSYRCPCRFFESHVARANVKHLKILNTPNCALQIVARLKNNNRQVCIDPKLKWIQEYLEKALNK

B1: miniCXCR4-WRAP truncated extracellular/ligand-binding part fused to designed WRAP (protein)
chain: MEGISIYTSDNYTEEMGSGDYDSMKEPCFREENANFNKIFLPTIYSIIFLTGIVGNGLVILVMGYQKKLRSMTDKYRLHLSVADLLFVITLPFWAVDAVANWYFGNFLCKAVHVIYTVNLYSSVLILAFISLDRYLAIVHATNSQRPRKLLAEKVVYVGVWIPALLLTIPDFIFANVSEADDRYICDRFYPNDLWVVVFQFQHIMVGLILPGIVILSCYCIIISKLSHSKGHQKRKALKTTVILILAFFACWLPYYIGISIDSFILLEIIKQGCEFENTVHKWISITEALAFFHCCLNPILYAFLGAKFKTSAQHALTS
modifications: truncated CXCR4 with designed loops fused to WRAP; biotinylated CXCL12
- Kd: 390 nM
